Measurements taken from patent US20250368745A1 (published 2025).
Where “and” joins values, the source holds several entries; their conditions need not be identical. Identical values can stand only once. Like-named read-outs stand apart in the source and are kept apart here.

B1: SA301a (antibody, human IgG1, V domains shown)
VH: QVQLQESGPGLVKPSQTLSLTCTVSGYSITSDYNSHWIRQPPGKGLEWIGYIHYSGSTNYNPSLKSRVTISRDTSKNQFSLKLSSVTAADTAVYYCARNYGSIYVNYFDYWGQGTLVTVSS
VL: EIVLTQSPATLSLSPGERATLSCSASSSVSYMYWYQQKPGQAPRPLIYRTSNLASGIPARFSGSGSGTDFTLTISSLEPEDFAVYYCQQYHSYPTFGGGTKVEIK
notes: humanized; human IgG1 (suffix a), kappa; also called humanized SA44a
B2: SA07a (antibody, human IgG1, V domains shown)
VH: EVQLQQSGPELVKPGASVKISCKASGYTFTDYYMNWVKQSHGKSLEWIGDINPNNGGTSYNQKFKGKATLTVDKSSNTAYMELRSLTSEDSAVYYCAREGVYSNYGGYFDYWGQGTTLTVSS
VL: QIVLTQSPALMSASPGEKVTMTCSASSSVSYMYWYQQKPRSSPKPWIYLTSNLASGVPARFSGSGSGTSYSLTISSMEAEDAATYYCQQWSSNPPTFGSGTKLEIK
notes: murine variable regions on human IgG1 kappa constant regions
B3: SA50a (antibody, human IgG1, V domains shown)
VH: QVQLVQSGSELKKPGASVKVSCKASVYTFTEYPMHWLRQAPGQGFEWMGWIHTYSGEPTYADDFKGRFVFSLDTSVSTAYLQISSLKAEDTAVYFCARGRYYGALDYWGQGTALTVSS
VL: DIQMTQSPSSLSASVGDRVTITCRASQDISNYLNWYQQKPGKAVKLLIYYTSRLHSGVPSRFSGSGSGTDYTFTISSLQPEDIATYFCQHGNTLPRTFGGGTKLEIK
notes: humanized; human IgG1 (suffix a), kappa; also called humanized SA04a
B4: SA04a (antibody, human IgG1, V domains shown)
VH: QIQFVQSGPEVKTPGETVKISCKASVYTFTEYPMHWLKQAPGEDFEWMGWIHTYSGEPTYADDFKGRFAFSLETSASTAYLQINNLKTEDTATYFCARGRYYGALDYWGQGTALT
VL: DIQMTQTPSSLSASLGDRVTISCRASQDISNYLNWYQQKPDGTVKLLIYYTSRLHSGVPSRFSGSGSGTDYSLTISNLEQEDVATYFCQHGNTLPRTFGGGTKLEIK
notes: as for B2
B5: SA44a (antibody, human IgG1, V domains shown)
VH: DVQLQESGPDLVKPSQSLSLTCTVTGYSITSDYNCHWIRQFPGNKLEWMGYIHYSGSTNYNPSLKSRISITRDTSKNQFFLQLNSVTAEDTATYYCARNYGSIYVNYFDYWGQGTTLTVSS
VL: QIVLTQSPAIMSASPGEKVTISCSASSSVSYMYWYQQEPGSSPKPWIYRTSNLASGVPPRFSGSGSGTSYSLTISSMEAEDAATYFCQQYHSYPTFGGGTKLEIK
notes: as for B2

How the values were obtained:
[1] = target: T1, mouse IL-18BP (mouse, UniProt Q9Z0M9 29-193); assay: BLI (Octet), mAb on AHC biosensor
T1 construct: also called mIL-18BP
T1 sequence: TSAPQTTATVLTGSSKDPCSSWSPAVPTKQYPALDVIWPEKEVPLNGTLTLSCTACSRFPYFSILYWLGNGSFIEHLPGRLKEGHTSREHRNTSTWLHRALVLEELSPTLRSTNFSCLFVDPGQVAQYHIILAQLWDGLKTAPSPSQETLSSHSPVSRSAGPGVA

[2] = target: T2, cynomolgus IL-18BP (cynomolgus monkey); assay: BLI (Octet), mAb on AHC biosensor
T2 construct: Generated in-house; also called cyIL-18BP; cyno IL-18BP
T2 chain: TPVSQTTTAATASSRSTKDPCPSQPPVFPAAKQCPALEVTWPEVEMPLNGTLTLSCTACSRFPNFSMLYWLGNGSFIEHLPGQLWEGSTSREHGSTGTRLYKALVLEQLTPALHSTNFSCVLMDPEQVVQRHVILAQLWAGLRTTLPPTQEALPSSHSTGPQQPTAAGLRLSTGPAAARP

[3] = target: T3, human IL-18BP (interleukin-18 binding protein, isoform A) (human, UniProt O95998 31-194); assay: BLI (Octet), mAb on AHC biosensor
T3 construct: cell assays used Sino Biological 10357-H08H; PBMC assay 1 relies on endogenous IL-18BP; UniProt number is printed as 095998; also called hIL-18BP
T3 sequence: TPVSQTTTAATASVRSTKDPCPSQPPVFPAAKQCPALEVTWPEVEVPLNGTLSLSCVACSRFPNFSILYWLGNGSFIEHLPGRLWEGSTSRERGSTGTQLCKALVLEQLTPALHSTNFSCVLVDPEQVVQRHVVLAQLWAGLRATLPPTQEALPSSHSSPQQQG

[4] = target: T2, cynomolgus IL-18BP; assay: BLI single-concentration screen, apparent KD
[5] = target: T3, human IL-18BP (interleukin-18 binding …); assay: BLI single-concentration screen, apparent KD
[6] = target: T2, cynomolgus IL-18BP; assay: ratio of BLI KDs, cyno against human IL-18BP
[7] = target: T3, human IL-18BP (interleukin-18 binding …); assay: cell-based or functional assay
[8] = target: T3, human IL-18BP (interleukin-18 binding …); assay: cell-based or functional assay; remark: listed apart in the source
[9] = target: T2, cynomolgus IL-18BP; assay: BLI (Octet), mAb on AHC biosensor
[10] = target: T3, human IL-18BP (interleukin-18 binding …); assay: BLI (Octet), mAb on AHC biosensor; remark: listed apart in the source
[11] = target: T1, mouse IL-18BP; assay: BLI (Octet), mAb on AHC biosensor; remark: listed apart in the source
[12] = target: T1, mouse IL-18BP; assay: BLI (Octet), mAb on AHC biosensor; remark: listed apart in the source
[13] = target: T2, cynomolgus IL-18BP; assay: BLI (Octet), mAb on AHC biosensor
[14] = target: T3, human IL-18BP (interleukin-18 binding …); assay: BLI (Octet), mAb on AHC biosensor; remark: listed apart in the source
[15] = target: T2, cynomolgus IL-18BP; assay: BLI (Octet), mAb on AHC biosensor
[16] = target: T3, human IL-18BP (interleukin-18 binding …); assay: BLI (Octet), mAb on AHC biosensor; remark: listed apart in the source
[17] = target: hypo-IL-18 (IL-18 tethered to IL-18BP by a flexible linker with TEV site, 6xHis) (human); assay: BLI
[18] = target: T3, human IL-18BP (interleukin-18 binding …); assay: cell-based or functional assay; remark: listed apart in the source
[19] = target: T2, cynomolgus IL-18BP; assay: ratio of BLI KDs for cyno and human IL-18BP
[20] = target: T2, cynomolgus IL-18BP; assay: BLI (Octet), mAb on AHC biosensor
[21] = target: T3, human IL-18BP (interleukin-18 binding …); assay: BLI (Octet), mAb on AHC biosensor; remark: listed apart in the source
[22] = target: T1, mouse IL-18BP; assay: BLI (Octet), mAb on AHC biosensor; remark: listed apart in the source

Sequence of hypo-IL-18 (IL-18 tethered to IL-18BP by a flexible linker with TEV site, 6xHis) (human) (chain, as listed by the source limits assumed): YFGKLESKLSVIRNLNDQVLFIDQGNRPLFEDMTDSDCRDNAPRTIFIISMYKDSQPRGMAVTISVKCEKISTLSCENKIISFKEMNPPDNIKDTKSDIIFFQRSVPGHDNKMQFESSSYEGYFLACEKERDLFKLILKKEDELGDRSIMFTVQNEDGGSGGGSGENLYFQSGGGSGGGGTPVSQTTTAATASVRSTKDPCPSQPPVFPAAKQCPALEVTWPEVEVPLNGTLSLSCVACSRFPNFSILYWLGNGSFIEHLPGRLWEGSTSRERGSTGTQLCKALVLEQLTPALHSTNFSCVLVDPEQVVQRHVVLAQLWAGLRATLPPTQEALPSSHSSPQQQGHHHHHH

| Binder | Kd [2] [nM] | Kd [3] [nM] | Cyno/human [6] [ratio] | EC50 (nM), KG-1 Assay (IFNγ) [7] [nM] | Kd [9] [nM] | Kd [10] [nM] | Kd [13] [nM] | Kd [14] [nM] | Kd [15] [nM] | Kd [16] [nM] | binding result [17] | Human/Cyno Fold Difference [19] [fold] | Kd [20] [nM] | Kd [21] [nM] | further results |
| --- | --- | --- | --- | --- | --- | --- | --- | --- | --- | --- | --- | --- | --- | --- | --- |
| B1 | 0.078 | 0.162 | 0.47 | 1.3 | 0.102 | 0.217 |  |  |  |  |  |  |  |  | binding result [1]: no binding; Kd [4]: 0.1 nM and 0.2 nM; Kd [5]: 0.2 nM and 0.3 nM; EC50 in PBMC Assay 1 (endogenous IL-18BP), IFNγ [8]: 2 nM |
| B2 |  |  |  |  |  |  |  |  |  |  |  |  |  |  | binding result [11]: no binding |
| B3 |  |  |  |  |  |  | 4.27 | 0.41 |  |  |  |  |  |  | binding result [12]: no binding |
| B4 |  |  |  | 2.6 |  |  | 1.5 | 0.26 | 1.5 | 0.26 | no binding | 5.8 | 0.67 | 0.25 | EC50 (nM), HEK293 IL-18 Reporter Assay (SEAP) [18]: 0.1 nM |
| B5 | 0.525 | 0.688 | 0.76 |  | 0.524 | 0.685 |  |  | 0.525 | 0.688 | no binding | 1 | 0.67 | 0.51 | binding result [22]: no binding |
